The values below come from patent US20040087498A1, “Modified factor VII” (Novo Nordisk Health Care AG, priority 1991, published 2004).

Like-named read-outs stand apart in the source and are kept apart here. A value given as a limit tells only on which side of the number the result lay.

For data set [1], the target named is purified recombinant soluble tissue factor.
Data set [2] has as its target cell-surface tissue factor on baboon smooth muscle cells (baboon).
Data set [3] has as its target tissue factor preparation, saline extract of baboon brain (baboon).
Data set [4] deals with T1, cell-surface tissue factor on rat vascular smooth muscle cells (Rattus norvegicus, UniProt P42533).
T1 construct: endogenous in cells; host or cells: rat vascular smooth muscle cells
T1 sequence (P42533 29-295): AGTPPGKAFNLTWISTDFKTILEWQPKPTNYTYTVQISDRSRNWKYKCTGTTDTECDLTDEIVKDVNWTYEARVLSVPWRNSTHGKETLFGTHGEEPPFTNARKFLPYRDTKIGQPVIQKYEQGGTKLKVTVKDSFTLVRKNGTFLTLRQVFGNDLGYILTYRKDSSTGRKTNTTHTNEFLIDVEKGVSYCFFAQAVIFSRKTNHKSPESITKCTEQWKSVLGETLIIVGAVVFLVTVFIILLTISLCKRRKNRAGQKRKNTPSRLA
The data set can be described thus: Inhibition of cell-surface chromogenic activity by DEGR-Factor VIIa. As to conditions: 10 nM Factor VIIa; cells stimulated with 10% fetal calf serum. Format: cell-based. Here is the method:
Rat vascular smooth muscle cells were plated into 96-well culture dishes as described above. The cells were cultured for 72 hours in serum free media as described above and treated with the addition of 10% fetal calf serum for 6 hours to stimulate tissue factor expression. […] The cells were incubated for 2 hours at 37° C., then washed with HEPES buffer. After washing, the cells were incubated for 5 minutes with […] per well of 200 nM Factor X in Tris-buffered saline supplemented with 5 mM CaCl2. Twenty-five microliters of 0.5 M EDTA and 25 μl of S-2222 (800 μM) chromogenic substrate (Kabi Pharmacia) were added to each well. The cells were incubated at room temperature for 40 minutes. Chromogenic activity was analyzed at 405 nm as described above.

Data set [5] deals with T2, cell-surface tissue factor on rat smooth muscle cells (Rattus norvegicus, UniProt P42533).
T2 construct: endogenous in cells; host or cells: rat vascular smooth muscle cells
T2 sequence (P42533 29-295): T1 sequence (P42533 29-295)
The experiment in a line: Dose-dependent cell-surface chromogenic activity on rat smooth muscle cells. It is filed as cell-based. Here is the method: Rat vascular smooth muscle cells were plated into 96-well culture dishes at 4,000 cells per well in growth medium supplemented with 1% fetal calf serum (as in Table 4 without 10% fetal calf serum). […] The cells were incubated with the Factor VII mixtures for 2 hours at 37° C. After incubation, the cells were washed and incubated with 50 μl of 200 nM Factor X in tris buffered saline for 5 minutes at room temperature. Each well had 25 μl of 0.5 M EDTA and 25 μl of […] S-2222 (Kabi Pharmacia) added to it, and the plates were incubated for 40 minutes at room temperature. Chromogenic activity was analyzed at 405 nm in a microplate reader as described above.

In data set [6] the target is T1, cell-surface tissue factor on rat vascular smooth muscle cells. The experiment in a line: Factor Xa generation on rat smooth muscle cells (S-2222). Format: cell-based. The settings on record: 10 nM Factor VIIa. Here is the method: Vascular smooth muscle-cells were analyzed for the presence of cell-surface tissue factor by measuring the ability of the cells to stimulate the conversion of Factor X to Factor Xa using a chromogenic substrate that is specific for Factor Xa.
Rat vascular smooth muscle cells (Clowes et al., J. Clin. Invest. 93:644-651 (1994)) were plated into 96-well culture dishes (American Scientific Products, Chicago, Ill.) at 8,000 cells per well in growth media (Table 4).
After a 48 hour incubation at 37° C. the medium was changed to serum free medium (Table 5).
The cells were incubated 72 hours at 37° C. After incubation, either PDGF-BB (10 ng/ml) or 10% fetal calf serum was added to the cells to stimulate tissue factor expression (Taubman et al., J. Clin. Invest, 21:547-552, 1993). A parallel set of cells received neither PDGF nor serum to monitor for intrinsic activity of unstimulated cells. […] The cells were incubated for 2 hours at 37° C. and washed with HEPES buffer (10 mM HEPES, 137 mM NaCl, 4 mM KCl, 5 mM CaCl2, 11 mM glucose, 0.1% BSA). After washing, cells were incubated for 5 min with 50 μl per well of 200 nM plasma-purified human Factor X in a Tris-buffered saline supplemented with 5 mM CaCl2. Twenty-five microliters of 0.5 M EDTA and 25 μl of an 800 μM solution of S-2222 chromogenic substrate (Kabi Pharmacia, Franklin, Ohio) were added to each well. The plates were incubated for 40 min at room temperature, then analyzed at 405 nm using a THERMOMAX microplate reader (Molecular Devices, Menlo Park, Calif.).

The target of data set [7] is T3, tissue factor (thromboplastin) (Oryctolagus cuniculus, UniProt P24055).
T3 construct: contains rabbit brain thromboplastin; purchased Dade, Miami, Fla. thromboplastin-C; host or cells: rabbit brain extract
T3 sequence (P24055 33-292): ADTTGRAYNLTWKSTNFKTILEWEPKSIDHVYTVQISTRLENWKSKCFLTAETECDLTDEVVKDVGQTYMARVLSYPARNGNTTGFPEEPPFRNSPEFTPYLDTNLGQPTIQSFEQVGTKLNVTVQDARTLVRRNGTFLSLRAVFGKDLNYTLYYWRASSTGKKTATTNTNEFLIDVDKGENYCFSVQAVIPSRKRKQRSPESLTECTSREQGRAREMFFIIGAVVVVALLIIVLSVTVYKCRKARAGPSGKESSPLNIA
The experiment in a line: One-step clotting mixing assay with a limiting amount of tissue factor. Format: biochemical, rabbit. Here is the method:
The ability of the modified Factor VII to compete with wild-type Factor VII for tissue factor and inhibit its clotting activity was assessed in a one-step clotting assay in the presence of a limiting amount of tissue factor (thromboplastin).
Clotting times were determined in a one-step assay similar to that described in Example II. A limited amount of tissue factor, a constant amount of wild type Factor VII, and increasing amounts of variant Factor VII were used in the mixing experiments. An inhibition of Factor VII/VIIa procoagulant activity would be seen as an increase in clotting time in assays containing increasing amounts of variant Factor VII.
The amount of Factor VII activity in the test samples was calculated as a percentage of a standard curve that measured Factor VII activity in normal pooled plasma. The standard curve for Factor VII activity was generated using serial dilutions of normal pooled plasma in phosphate buffered solution (PBS) that ranged from 1:5 to 1:640. For this purpose it was assumed that normal plasma contains approximately 500 ng/ml of Factor VII and this was considered to be one unit of activity. A mixture of 100 μl Factor VII-deficient plasma, 100 μl plasma dilution and 200 μl of thromboplastin-C (Dade, Miami, Fla.) was used to measure clotting time on a MLA Electra 800 automatic timer. To establish the standard curve, the results were graphed as percentage of activity (1:5=100% activity) versus clotting time in seconds.
The assay required that the medium containing the wild type and variant Factor VII be composed of less than one percent serum. The dilutions were made in PBS so that clotting times would fall along the standard curve. A minimum dilution of 1:2 was typical. The final volume was 100 μl. Two different human Factor VII Ser344→Ala variants, designated clones “#10” and “#6” were tested in the experiments.

Data set [8] concerns Factor VII-deficient plasma. The data set can be described thus: One-stage clotting assay of coagulant activity. Format: biochemical, human. Here is the method:
The ability of the modified Factor VII protein to inhibit clotting was measured in a one-stage clotting assay using wild-type Factor VII as a control. Recombinant proteins were prepared essentially as described above from cells cultured in media containing 5 μg/ml vitamin K. Varying amounts of the modified Factor VII (from clone 544) or recombinant wild-type Factor VII were diluted in 50 mM Tris pH 7.5, 0.1% BSA to 100 μl. The mixtures were incubated with 100 μl of Factor VII-deficient plasma (George King Bio-Medical Inc., Overland Park, Kans.) and 200 μl of thromboplastin C (Dade, Miami, Fla.; contains rabbit brain thromboplastin and 11.8 mM Ca^++). The clotting assay was performed in an automatic coagulation timer (MLA Electra 800, Medical Laboratory Automation Inc., Pleasantville, N.Y.), and clotting times were converted to units of Factor VII activity using a standard curve constructed with 1:5 to 1:640 dilutions of normal pooled human plasma (assumed to contain-one unit per ml Factor VII activity; prepared by pooling citrated […] from healthy donors). […] Factor VII activity is seen as a reduction in clotting time over control samples.

For data set [9] the following is noted: in vivo; cited from earlier work.
Data set [10] has as its target tissue factor (thromboplastin C, rabbit brain thromboplastin) (rabbit) (UniProt P24055).
Data set [11] has as its target T4, cell-surface tissue factor on rat vascular smooth muscle cells (rat) (UniProt P42533).
T4 sequence: T1 sequence (P42533 29-295)

The target in data set [12] is T4, cell-surface tissue factor on rat vascular smooth muscle cells (rat). This is another data set of the same source.
The target of data set [13] is purified recombinant soluble tissue factor. This is another data set of the same source.
Data set [14] has as its target T4, cell-surface tissue factor on rat vascular smooth muscle cells (rat). This is another data set of the same source.
[15] abbreviates: variant medium 10 μl + B4A1 (wild type) medium 10 μl.
The mark [16] stands for this setting: variant medium 20 μl + B4A1 (wild type) medium 10 μl.
Setting [17] is: variant medium 30 μl + B4A1 (wild type) medium 10 μl.
[18] abbreviates: variant medium 40 μl + B4A1 (wild type) medium 10 μl.
Where [19] appears, read: variant medium 50 μl + B4A1 (wild type) medium 10 μl.

As to “DEGR-Factor VIIa (from UniProt P08709) (enzyme)”, the OD405 (Factor Xa chromogenic activity, S-2222) in [1] was 0.055 OD405. The same molecule registered an inhibition of Factor Xa chromogenic activity on baboon smooth muscle cells in data set [2] above 90%. Besides, the Clotting time in [3] is 158 s.

As for “Factor VIIa: Recombinant human Factor VIIa, activated two-chain form [reference compound]”, the OD405 entry is recorded as “.342” in [4]; “.058” in data set [5] (Factor VIIa 1.56 nM alone); “.111” in data set [5] (Factor VIIa 6.25 nM alone); “.154” in data set [5] (Factor VIIa 25.00 nM alone); “.208” in data set [5] (Factor VIIa 100.00 nM alone); “.005” in data set [5] (Factor VIIa .10 nM alone). Also, the OD405 entry was “.025” in data set [5] (Factor VIIa .39 nM alone), “.247” in [6] (Intrinsic (unstimulated cells)), “.342” in data set [6] (cells stimulated with 10% FCS) and “.360” in data set [6] (cells stimulated with PDGF-BB (10 ng/ml)).

Take “Modified Factor VII (#6): human Factor VII Ser344→Ala variant, clone #6”: the “Percent FVIIa Activity” value in data set [7] (setting [15]) is on record as 74%; in [7] (setting [16]) it was 56%; in [7] (setting [17]), 46%; in data set [7] (setting [18]) it was 41%; in [7] (setting [19]), 32%. The “Clotting time” value in [8] (dilution 1:1) was 33.5 s.

Turning to “Modified Factor VII (#10): human Factor VII Ser344→Ala variant, clone #10”, the “Percent FVIIa Activity” value is listed as 70% in [7] (setting [15]); 51% in data set [7] (setting [16]); 43% in data set [7] (setting [17]); 34% in data set [7] (setting [18]); 28% in [7] (setting [19]). The “Clotting time” value in [8] (dilution 1:1) was 32.5 s.

“Wild-type Factor VII: recombinant wild-type Factor VII used as a control”: the “Clotting time” value in data set [8] (dilution 1:20) is 19.0 s; in data set [8] (dilution 1:40) it was 21.5 s; in [8] (dilution 1:80), 23.3 s.

heparin: the half-life result in [9] was “approximately 80 minutes”.

As to “human Factor VII Ser344→Ala variant (from UniProt P08709) (enzyme)”, in [10], the Percent FVIIa Activity amounted to 28%.

Molecule “human Factor VII Ser344→Ala variant expressed without vitamin K (from UniProt P08709) (enzyme)” yielded a Percent FVIIa Activity in [10] of 78%.

Regarding “recombinant human Factor VIIa (from UniProt P08709) (enzyme)”, the OD405 (Factor Xa chromogenic activity, S-2222) in data set [11] came to 0.342 OD405; in data set [12], 0.36 OD405; in data set [13] it was 0.79 OD405; in data set [14], 0.208 OD405.

B1: #10 (−K): Ser344→Ala variant clone #10 expressed by cells grown without vitamin K (protein, UniProt P08709 1-466, looked up, variant S344A)
chain: MVSQALRLLCLLLGLQGCLAAGGVAKASGGETRDMPWKPGPHRVFVTQEEAHGVLHRRRRANAFLEELRPGSLERECKEEQCSFEEAREIFKDAERTKLFWISYSDGDQCASSPCQNGGSCKDQLQSYICFCLPAFEGRNCETHKDDQLICVNENGGCEQYCSDHTGTKRSCRCHEGYSLLADGVSCTPTVEYPCGKIPILEKRNASKPQGRIVGGKVCPKGECPWQVLLLVNGAQLCGGTLINTIWVVSAAHCFDKIKNWRNLIAVLGEHDLSEHDGDEQSRRVAQVIIPSTYVPGTTNHDIALLRLHQPVVLTDHVVPLCLPERTFSERTLAFVRFSLVSGWGQLLDRGATALELMVLNVPRLMTQDCLQQSRKVGDSPNITEYMFCAGYSDGSKDSCKGDAGGPHATHYRGTWYLTGIVSWGQGCATVGHFGVYTRVSQYIEWLQKLMRSEPRPGVLLRAPFP
modifications: expressed without vitamin K
notes: Ser344→Ala variant clone #10 expressed by cells grown without vitamin K
Turning to B1, the “Percent FVIIa Activity” value in data set [7] (setting [16]) was 78%.

B2: #6 (−K): Ser344→Ala variant clone #6 expressed by cells grown without vitamin K (protein, UniProt P08709 1-466, looked up, variant S344A)
chain: B1 chain
modifications: expressed without vitamin K
notes: Ser344→Ala variant clone #6 expressed by cells grown without vitamin K
For B2, in data set [7] (setting [16]), the “Percent FVIIa Activity” value is listed as 85%.
